Ends that are not written are not given here. * marks the point of attachment. Biotin = O=C1N[C@H]2[C@H](CS[C@H]2CCCCC(=O)*)N1
Columns and labels:
Test in all cases: peptide or protein array; E. coli proteome chip: purified His-tagged proteins printed in duplicate on Fullmoon slides, blocked with 1% BSA; 10 nM N-terminal biotinylated LfcinB with 1% BSA, room temperature, 1 h; detected with DyLight 649-labeled streptavidin, ratio to DyLight 549-labeled anti-His antibody; ProCAT normalisation, local cut-off; triplicate chips
Conditions in all cases: both partners purified
[1] = target: T1, phosphoenolpyruvate carboxylase (E. coli K-12, UniProt P00864 1-883)
T1 construct: Ppc, phosphoenolpyruvate carboxylase, E. coli K-12; also called Ppc
T1 sequence (looked up): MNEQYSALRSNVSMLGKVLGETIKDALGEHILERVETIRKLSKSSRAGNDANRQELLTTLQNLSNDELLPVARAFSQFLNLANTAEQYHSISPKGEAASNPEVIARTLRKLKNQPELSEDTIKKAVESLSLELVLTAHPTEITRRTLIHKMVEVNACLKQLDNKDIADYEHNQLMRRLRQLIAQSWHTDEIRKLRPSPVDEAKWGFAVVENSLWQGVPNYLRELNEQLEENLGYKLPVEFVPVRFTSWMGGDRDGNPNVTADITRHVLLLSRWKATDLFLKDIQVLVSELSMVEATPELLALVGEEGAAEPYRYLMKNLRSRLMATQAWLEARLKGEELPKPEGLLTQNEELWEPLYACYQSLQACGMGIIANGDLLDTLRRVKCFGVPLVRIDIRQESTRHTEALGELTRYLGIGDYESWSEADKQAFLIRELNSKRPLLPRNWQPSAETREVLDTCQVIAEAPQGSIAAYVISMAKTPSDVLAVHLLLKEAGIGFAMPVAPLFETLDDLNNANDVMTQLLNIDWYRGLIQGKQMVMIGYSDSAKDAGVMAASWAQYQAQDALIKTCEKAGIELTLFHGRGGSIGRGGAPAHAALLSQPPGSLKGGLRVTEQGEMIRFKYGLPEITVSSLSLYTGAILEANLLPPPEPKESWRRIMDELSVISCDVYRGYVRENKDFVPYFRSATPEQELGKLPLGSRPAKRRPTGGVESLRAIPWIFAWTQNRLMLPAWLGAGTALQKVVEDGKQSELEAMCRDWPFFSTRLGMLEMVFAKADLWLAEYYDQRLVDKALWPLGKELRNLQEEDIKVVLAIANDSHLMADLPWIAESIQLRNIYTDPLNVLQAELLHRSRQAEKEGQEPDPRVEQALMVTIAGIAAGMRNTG

YihI = target: T2, YihI (E. coli K-12, UniProt P0A8H6 1-169)
T2 construct: YihI, E. coli K-12
T2 sequence (looked up): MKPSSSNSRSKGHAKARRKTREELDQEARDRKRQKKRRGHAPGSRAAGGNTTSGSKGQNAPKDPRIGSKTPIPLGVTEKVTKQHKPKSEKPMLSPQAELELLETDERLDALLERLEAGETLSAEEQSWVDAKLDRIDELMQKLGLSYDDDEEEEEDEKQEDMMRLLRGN

YhiF = target: T3, YhiF (E. coli K-12, UniProt P37195 1-176)
T3 construct: YhiF, E. coli K-12
T3 sequence (looked up): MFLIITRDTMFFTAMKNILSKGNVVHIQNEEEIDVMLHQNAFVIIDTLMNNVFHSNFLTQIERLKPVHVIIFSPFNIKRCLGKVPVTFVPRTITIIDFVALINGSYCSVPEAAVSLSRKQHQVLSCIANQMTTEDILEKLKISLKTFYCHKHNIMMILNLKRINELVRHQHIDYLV

YhjH = target: T4, YhjH (E. coli K-12, UniProt P37646 1-255)
T4 construct: YhjH, E. coli K-12
T4 sequence (looked up): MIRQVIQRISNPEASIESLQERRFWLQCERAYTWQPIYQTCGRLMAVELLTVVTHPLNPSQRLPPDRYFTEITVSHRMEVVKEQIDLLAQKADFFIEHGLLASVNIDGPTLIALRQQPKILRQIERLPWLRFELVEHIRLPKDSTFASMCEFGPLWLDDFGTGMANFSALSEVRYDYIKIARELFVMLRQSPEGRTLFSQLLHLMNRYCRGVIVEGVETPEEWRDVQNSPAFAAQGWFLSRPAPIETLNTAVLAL

YefE = target: T5, YefE (E. coli K-12, UniProt P37747 1-367)
T5 construct: YefE, E. coli K-12
T5 sequence (looked up): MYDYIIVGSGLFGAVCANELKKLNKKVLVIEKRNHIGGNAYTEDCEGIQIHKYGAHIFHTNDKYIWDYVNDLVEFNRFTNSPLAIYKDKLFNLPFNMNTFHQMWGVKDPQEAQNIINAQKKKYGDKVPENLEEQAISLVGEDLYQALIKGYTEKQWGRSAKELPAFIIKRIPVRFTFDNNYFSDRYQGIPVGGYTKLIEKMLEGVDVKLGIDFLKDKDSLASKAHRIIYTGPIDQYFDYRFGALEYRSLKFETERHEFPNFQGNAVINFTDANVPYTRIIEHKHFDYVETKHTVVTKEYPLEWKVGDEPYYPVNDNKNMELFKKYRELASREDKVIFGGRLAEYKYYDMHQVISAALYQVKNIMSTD

YbeY = target: T6, YbeY (E. coli K-12, UniProt P0A898 1-155)
T6 construct: YbeY, E. coli K-12
T6 sequence (P0A898 whole entry): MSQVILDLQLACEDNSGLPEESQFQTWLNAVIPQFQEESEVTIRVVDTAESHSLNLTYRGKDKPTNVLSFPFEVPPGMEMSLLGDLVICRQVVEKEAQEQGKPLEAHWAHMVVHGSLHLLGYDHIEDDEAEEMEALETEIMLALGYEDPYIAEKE

Measured: binding result

B1: N-terminal biotinylated Lactoferricin B (peptide, UniProt P24627 36-60, looked up)
peptide: Biotin-FKCRRWQWRMKKLGAPSITCVRRAF
modifications: ends and bridges not checked
notes: lactoferricin B (LfcinB), cationic antimicrobial peptide of 25 amino acids; also called biotinylated LfcinB; biotin-labeled LfcinB; source: bought: Kelowna Inc
binds: all assays above

From article PMC3229523, “Identification of Lactoferricin B Intracellular Targets Using an Escherichia coli Proteome Chip” (PLoS ONE, 2011)
